Molecular target: T1, Tay1p (YlTay1p) (Yarrowia lipolytica, UniProt Q6C9I6 1-406)
T1 sequence: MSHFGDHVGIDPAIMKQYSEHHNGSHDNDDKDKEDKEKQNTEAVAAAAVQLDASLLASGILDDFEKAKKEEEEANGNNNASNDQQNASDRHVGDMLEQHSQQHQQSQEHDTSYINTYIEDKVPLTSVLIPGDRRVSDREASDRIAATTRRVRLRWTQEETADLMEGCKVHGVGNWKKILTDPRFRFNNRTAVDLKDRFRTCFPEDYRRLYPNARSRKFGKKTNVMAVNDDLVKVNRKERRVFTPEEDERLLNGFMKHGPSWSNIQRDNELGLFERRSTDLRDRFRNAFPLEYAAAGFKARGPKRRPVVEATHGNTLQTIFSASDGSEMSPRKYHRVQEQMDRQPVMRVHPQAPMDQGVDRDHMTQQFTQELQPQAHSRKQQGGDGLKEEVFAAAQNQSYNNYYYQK
Assay: EMSA; 20 mM HEPES-NaOH pH 7.3, 100 mM NaCl, 16 nM dsDNA probe (3-fold molar excess of unlabelled C strand used in annealing), 10 min at room temperature; 6% PAGE in cold 0.5x TBE
Conditions: protein: recombinant; label: 5'-32P on G strand; blunt

B1: Y. lipolytica telomeric probe YlipTEL (2 repeats) (dsDNA)
DNA 1: TTAGTCAGGGTTAGTCAGGG
DNA 2: CCCTGACTAACCCTGACTAA
  binding result: binds

Source: publication PMC6746865, “Identification of telomerase RNAs in species of the Yarrowia clade provides insights into the co-evolution of telomerase, telomeric repeats and telomere-binding proteins”
